Measured values from the supplement of paper PMC11780869.

System: Bacillus subtilis
Experiment: cleaved RNA product abundance (RNA/gDNA barcode ratio) relative to median wild-type variant (ratio to wild type); higher = more accumulation of the downstream cleavage product
Conditions: cleavage site: cggR-gapA (positions -7 to +36 mutated)
Outline: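 Reporter mRNAs (truncated aprE or tetM) carrying barcoded, mutagenized RNase Y cleavage-site windows were made from oligos with a 9% error rate and integrated into the B. subtilis chromosome. Cultures grew in LB at 37°C from OD600 0.0003 to 0.3. Cleaved RNA was gel-selected, reverse transcribed and barcode-sequenced alongside genomic DNA barcodes, with UMI collapsing. Cleaved product abundance is the RNA:gDNA barcode ratio per variant, scaled to the median wild-type variant.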

[1] = experiment (reporter, strain, medium): exp 4a: truncated aprE reporter, strain BJT201 with 2% xylose (RNase J1 expressed)
[2] = experiment (reporter, strain, medium): exp 2b: truncated aprE reporter, strain BJT200

Sequence: ACAGACGAAGGAGCCGCAAAGAAGTGATTAAGGGATGAATAATCTCTCAATATAAATATCTCTCACTTATTTAAA
- cleaved RNA product abundance [1]: 0.306

Sequence: ACAGACGAAGGAGCCGCAAAGAAGTGATTAAGGGATGAATACTCCCTCAATATAAATATCTCTCACTTATTTAAA
- cleaved RNA product abundance [1]: 0.354

Sequence: ACAGACGAAGGAGCCGCAAAGAAGTGATTAAGGGATGAATAGTCCCTCAATATAAATATCTCTCACTTATTTAAA
- cleaved RNA product abundance [2]: 0.184
- cleaved RNA product abundance [1]: 0.274

Sequence: ACAGACGAAGGAGCCGCAAAGAAGTGATTAAGGGATGAATTATCCCTCAATATAAATATCTCTCACTTATTTAAA
- cleaved RNA product abundance [1]: 0.366

Sequence: ACAGACGAAGGAGCCGCAAAGAAGTGATTAAGGGATGAGTAATCCCTCAATATAAATATCTCTCACTTATTTAAA
- cleaved RNA product abundance [1]: 0.285

Sequence: ACAGACGAAGGAGCCGCAAAGAAGTGATTAAGGGATGCATAATCCCTCAATATAAATATCTCTCACTTATTTAAA
- cleaved RNA product abundance [1]: 0.51

Sequence: ACAGACGAAGGAGCCGCAAAGAAGTGATTAAGGGATTAATAATCCCTCAATATAAATATCTCTCACTTATTTAAA
- cleaved RNA product abundance [2]: 0.459
- cleaved RNA product abundance [1]: 0.325

Sequence: ACAGACGAAGGAGCCGCAAAGAAGTGATTAAGGGCTGAATAATCCCTCAATATAAATATCTCTCACTTATTTAAA
- cleaved RNA product abundance [1]: 0.309

Sequence: ACAGACGAAGGAGCCGCAAAGAAGTGATTAAGGGTTGAATAATCCCTCAATATAAATATCTCTCACTTATTTAAA
- cleaved RNA product abundance [2]: 0.15
- cleaved RNA product abundance [1]: 0.263

Sequence: ACAGACGAAGGAGCCGCAAAGAAGTGATTAAGGTATGAATAATCCCTCAATATAAATATCTCTCACTTATTTAAA
- cleaved RNA product abundance [2]: 0.0827
- cleaved RNA product abundance [1]: 0.113

Sequence: ACAGACGAAGGAGCCGCAAAGAAGTGATTAAGTGATGAATAATCCCTCAATATAAATATCTCTCACTTATTTAAA
- cleaved RNA product abundance [2]: 0.114
- cleaved RNA product abundance [1]: 0.0876

Sequence: ACAGACGAAGGAGCCGCAAAGAAGTGATTAATGGATGAATAATCCCTCAATATAAATATCTCTCACTTATTTAAA
- cleaved RNA product abundance [2]: 0.0996
- cleaved RNA product abundance [1]: 0.108

Sequence: ACAGACGAAGGAGCCGCAAAGAAGTGATTACGGGATGAATAATCCCTCAATATAAATATCTCTCACTTATTTAAA
- cleaved RNA product abundance [1]: 0.396

Sequence: ACAGACGAAGGAGCCGCAAAGAAGTGATTTAGGGATGAATAATCCCTCAATATAAATATCTCTCACTTATTTAAA
- cleaved RNA product abundance [1]: 0.386

Sequence: ACAGACGAAGGAGCCGCAAAGAAGTTAAAAAAGGATGAATAATCCCTCAATATAAATATCTCTCACTTATTTAAA
- cleaved RNA product abundance [1]: 0.227

Sequence: ACAGACGAAGGAGCCGCAAAGAAGTTAAAAAGGGATGAATAATCCCTCAATATAAATATCTCTCACTTATTTAAA
- cleaved RNA product abundance [2]: 0.268
- cleaved RNA product abundance [1]: 0.392

Sequence: ACAGACGAAGGAGCCGCAAAGAAGTTAATAAAGGATGAATAATCCCTCAATATAAATATCTCTCACTTATTTAAA
- cleaved RNA product abundance [2]: 0.143
- cleaved RNA product abundance [1]: 0.215

Sequence: ACAGACGAAGGAGCCGCAAAGAAGTTAATAACGGATGAATAATCCCTCAATATAAATATCTCTCACTTATTTAAA
- cleaved RNA product abundance [1]: 0.177

Sequence: ACAGACGAAGGAGCCGCAAAGAAGTTAATAAGAGATGAATAATCCCTCAATATAAATATCTCTCACTTATTTAAA
- cleaved RNA product abundance [1]: 0.133

Sequence: ACAGACGAAGGAGCCGCAAAGAAGTTAATAAGCGATGAATAATCCCTCAATATAAATATCTCTCACTTATTTAAA
- cleaved RNA product abundance [2]: 0.0808
- cleaved RNA product abundance [1]: 0.104

Sequence: ACAGACGAAGGAGCCGCAAAGAAGTTAATAAGGAATGAATAATCCCTCAATATAAATATCTCTCACTTATTTAAA
- cleaved RNA product abundance [2]: 0.103
- cleaved RNA product abundance [1]: 0.165

Sequence: ACAGACGAAGGAGCCGCAAAGAAGTTAATAAGGCATGAATAATCCCTCAATATAAATATCTCTCACTTATTTAAA
- cleaved RNA product abundance [2]: 0.0718
- cleaved RNA product abundance [1]: 0.104

Sequence: ACAGACGAAGGAGCCGCAAAGAAGTTAATAAGGGAAGAATAATCCCTCAATATAAATATCTCTCACTTATTTAAA
- cleaved RNA product abundance [2]: 0.135
- cleaved RNA product abundance [1]: 0.17

Sequence: ACAGACGAAGGAGCCGCAAAGAAGTTAATAAGGGACGAATAATCCCTCAATATAAATATCTCTCACTTATTTAAA
- cleaved RNA product abundance [2]: 0.154
- cleaved RNA product abundance [1]: 0.164

Sequence: ACAGACGAAGGAGCCGCAAAGAAGTTAATAAGGGATAAATAATCCCTCAATATAAATATCTCTCACTTATTTAAA
- cleaved RNA product abundance [2]: 0.253
- cleaved RNA product abundance [1]: 0.382

Sequence: ACAGACGAAGGAGCCGCAAAGAAGTTAATAAGGGATCAATAATCCCTCAATATAAATATCTCTCACTTATTTAAA
- cleaved RNA product abundance [2]: 0.282
- cleaved RNA product abundance [1]: 0.316

Sequence: ACAGACGAAGGAGCCGCAAAGAAGTTAATAAGGGATGAAAAATCCCTCAATATAAATATCTCTCACTTATTTAAA
- cleaved RNA product abundance [1]: 0.293

Sequence: ACAGACGAAGGAGCCGCAAAGAAGTTAATAAGGGATGAACAATCCCTCAATATAAATATCTCTCACTTATTTAAA
- cleaved RNA product abundance [2]: 0.251

Sequence: ACAGACGAAGGAGCCGCAAAGAAGTTAATAAGGGATGAAGAATCCCTCAATATAAATATCTCTCACTTATTTAAA
- cleaved RNA product abundance [1]: 0.278

Sequence: ACAGACGAAGGAGCCGCAAAGAAGTTAATAAGGGATGAATAAACCCTCAATATAAATATCTCTCACTTATTTAAA
- cleaved RNA product abundance [2]: 0.167
- cleaved RNA product abundance [1]: 0.177

Sequence: ACAGACGAAGGAGCCGCAAAGAAGTTAATAAGGGATGAATAACCCCTCAATATAAATATCTCTCACTTATTTAAA
- cleaved RNA product abundance [1]: 0.192

Sequence: ACAGACGAAGGAGCCGCAAAGAAGTTAATAAGGGATGAATAAGCCCTCAATATAAATATCTCTCACTTATTTAAA
- cleaved RNA product abundance [1]: 0.197

Sequence: ACAGACGAAGGAGCCGCAAAGAAGTTAATAAGGGATGAATAATACCTCAATATAAATATCTCTCACTTATTTAAA
- cleaved RNA product abundance [2]: 0.0994
- cleaved RNA product abundance [1]: 0.144

Sequence: ACAGACGAAGGAGCCGCAAAGAAGTTAATAAGGGATGAATAATCACTCAATATAAATATCTCTCACTTATTTAAA
- cleaved RNA product abundance [2]: 0.112
- cleaved RNA product abundance [1]: 0.109

Sequence: ACAGACGAAGGAGCCGCAAAGAAGTTAATAAGGGATGAATAATCCATCAATATAAATATCTCTCACTTATTTAAA
- cleaved RNA product abundance [2]: 0.166
- cleaved RNA product abundance [1]: 0.224

Sequence: ACAGACGAAGGAGCCGCAAAGAAGTTAATAAGGGATGAATAATCCCACAATATAAATATCTCTCACTTATTTAAA
- cleaved RNA product abundance [2]: 0.17
- cleaved RNA product abundance [1]: 0.253

Sequence: ACAGACGAAGGAGCCGCAAAGAAGTTAATAAGGGATGAATAATCCCGCAATATAAATATCTCTCACTTATTTAAA
- cleaved RNA product abundance [2]: 0.0984

Sequence: ACAGACGAAGGAGCCGCAAAGAAGTTAATAAGGGATGAATAATCCCTAAATATAAATATCTCTCACTTATTTAAA
- cleaved RNA product abundance [1]: 0.306

Sequence: ACAGACGAAGGAGCCGCAAAGAAGTTAATAAGGGATGAATAATCCCTCAAAATAAATATCTCTCACTTATTTAAA
- cleaved RNA product abundance [1]: 0.25

Sequence: ACAGACGAAGGAGCCGCAAAGAAGTTAATAAGGGATGAATAATCCCTCAACATAAATATCTCTCACTTATTTAAA
- cleaved RNA product abundance [1]: 0.342

Sequence: ACAGACGAAGGAGCCGCAAAGAAGTTAATAAGGGATGAATAATCCCTCAATACAAATATCTCTCACTTATTTAAA
- cleaved RNA product abundance [2]: 0.0847

Sequence: ACAGACGAAGGAGCCGCAAAGAAGTTAATAAGGGATGAATAATCCCTCAATATAAAAATCTCTCACTTATTTAAA
- cleaved RNA product abundance [1]: 0.278

Sequence: ACAGACGAAGGAGCCGCAAAGAAGTTAATAAGGGATGAATAATCCCTCAATATAAACATCTCTCACTTATTTAAA
- cleaved RNA product abundance [1]: 0.338

Sequence: ACAGACGAAGGAGCCGCAAAGAAGTTAATAAGGGATGAATAATCCCTCAATATAAAGATCTCTCACTTATTTAAA
- cleaved RNA product abundance [2]: 0.182

Sequence: ACAGACGAAGGAGCCGCAAAGAAGTTAATAAGGGATGAATAATCCCTCAATATAAATACCTCTCACTTATTTAAA
- cleaved RNA product abundance [1]: 0.201

Sequence: ACAGACGAAGGAGCCGCAAAGAAGTTAATAAGGGATGAATAATCCCTCAATATAAATAGCTCTCACTTATTTAAA
- cleaved RNA product abundance [1]: 0.293

Sequence: ACAGACGAAGGAGCCGCAAAGAAGTTAATAAGGGATGAATAATCCCTCAATATAAATATCTCTCACTTATTTAAA
- cleaved RNA product abundance [2]: 0.264
- cleaved RNA product abundance [1]: 0.349
- cleaved RNA product abundance (experiment (reporter, strain, medium): exp 6: tetM reporter, strain 168): 0.555

Sequence: ACAGACGAAGGAGCCGCAAAGAAGTTAATAAGGGATGAATAATCCCTCAATATAAATCTCTCTCACTTATTTAAA
- cleaved RNA product abundance [1]: 0.218

Sequence: ACAGACGAAGGAGCCGCAAAGAAGTTAATAAGGGATGAATAATCCCTCAATATAAATGTCTCTCACTTATTTAAA
- cleaved RNA product abundance [1]: 0.303

Sequence: ACAGACGAAGGAGCCGCAAAGAAGTTAATAAGGGATGAATAATCCCTCAATATACATATCTCTCACTTATTTAAA
- cleaved RNA product abundance [1]: 0.313

Sequence: ACAGACGAAGGAGCCGCAAAGAAGTTAATAAGGGATGAATAATCCCTCACTATAAATATCTCTCACTTATTTAAA
- cleaved RNA product abundance [1]: 0.263

Sequence: ACAGACGAAGGAGCCGCAAAGAAGTTAATAAGGGATGAATAATCCCTCATTATAAATATCTCTCACTTATTTAAA
- cleaved RNA product abundance [1]: 0.794

Sequence: ACAGACGAAGGAGCCGCAAAGAAGTTAATAAGGGATGAATAATCCCTCTATATAAATATCTCTCACTTATTTAAA
- cleaved RNA product abundance [1]: 0.39
